Two molecules from patent US20220362145A1, “THERAPEUTIC HYDROGEL COMPOSITIONS” (THE UNIVERSITY OF BIRMINGHAM, priority 2018, published 2022) can be followed below.

Where only a bound is given, the exact number is not on record here.

The target of data set [1] is T1, collagen type I (rat tail) (Rattus norvegicus, UniProt P02454+P02466).
T1 construct: collagen type I (rat tail; Corning, UK); purchased Corning, UK; host or cells: rat tail (tissue-derived)
Briefly: Collagen fibrillogenesis turbidity assay. The data set is classed as biochemical. Here is the method:
Collagen fibrillogenesis: For the dose response curves, 75 µl of PBS was added to each well of a 96 well plate kept on ice. Varying hrDecorin doses were prepared by adding 400 μg/ml of hrDecorin to the first well and subsequently serial diluting (2-fold dilution) across the plate. Following dilution, a further 150 μl of PBS buffer was added to each well. Then, 75 μl of collagen type I (rat tail; Corning, UK) (800 μg/ml) was added to each well and incubated for 2 hours at 37° C. Subsequent absorbance readings were taken using a 405 nm plate reader. Each assay consisted of duplicate blank controls, and triplicate standard dilutions followed by triplicate sample dilutions. Kinetics of fibril formation were determined using a similar setup as the dose response, without serial dilution; incubating the samples within the plate reader, and taking data points every 2 minutes.
• Prepare diluent and reaction buffers by mixing sodium phosphate and sodium chloride and adjusting the pH to 7.4. • Add sample (Gellan fluid gel +Galacorin™ Galacorin only and Gellan only) to a 96 well plate and serial dilute using diluent buffer across the rows of the plate. • On ice, prepare collagen by mixing with cold water to a concentration of 0.8 mg/ml. • Add collagen to all wells. • Add reaction buffer to all wells and mix. • Incubate at 37° C. for 2 hours. • Read using a plate reader at 405 nm

The test system of a further data set is fibrin gel. Briefly: Matrix breakdown assay (fibrin gel). It is filed as biochemical. The settings on record: trans-well above fibrin gel (8.5 mg/ml), 60° C. Here is the method:
[…] • Add 0.9 ml of gel to an Eppendorf. • To each gel add 0.1 ml of active in PBS. • Mix well using a vortex mixer. • Refrigerate for 24 hours before testing. • 0.5 ml of fibrin gel (8.5 mg/ml) was formed in the wells of a 24 well plate. • 0.5 ml of PBS was added to each well. • 0.1 ml of gel with active was added to a trans-well insert and placed above the fibrin gel. • Samples were incubated at 60° C. to activate the proteinase K. • Images were taken at various timepoints and compared to the control fibrin gel (pbs only) and fibrin gel with proteinase k added without a fluid gel carrier.

T1 sequence (P02454 152-1207 limits assumed): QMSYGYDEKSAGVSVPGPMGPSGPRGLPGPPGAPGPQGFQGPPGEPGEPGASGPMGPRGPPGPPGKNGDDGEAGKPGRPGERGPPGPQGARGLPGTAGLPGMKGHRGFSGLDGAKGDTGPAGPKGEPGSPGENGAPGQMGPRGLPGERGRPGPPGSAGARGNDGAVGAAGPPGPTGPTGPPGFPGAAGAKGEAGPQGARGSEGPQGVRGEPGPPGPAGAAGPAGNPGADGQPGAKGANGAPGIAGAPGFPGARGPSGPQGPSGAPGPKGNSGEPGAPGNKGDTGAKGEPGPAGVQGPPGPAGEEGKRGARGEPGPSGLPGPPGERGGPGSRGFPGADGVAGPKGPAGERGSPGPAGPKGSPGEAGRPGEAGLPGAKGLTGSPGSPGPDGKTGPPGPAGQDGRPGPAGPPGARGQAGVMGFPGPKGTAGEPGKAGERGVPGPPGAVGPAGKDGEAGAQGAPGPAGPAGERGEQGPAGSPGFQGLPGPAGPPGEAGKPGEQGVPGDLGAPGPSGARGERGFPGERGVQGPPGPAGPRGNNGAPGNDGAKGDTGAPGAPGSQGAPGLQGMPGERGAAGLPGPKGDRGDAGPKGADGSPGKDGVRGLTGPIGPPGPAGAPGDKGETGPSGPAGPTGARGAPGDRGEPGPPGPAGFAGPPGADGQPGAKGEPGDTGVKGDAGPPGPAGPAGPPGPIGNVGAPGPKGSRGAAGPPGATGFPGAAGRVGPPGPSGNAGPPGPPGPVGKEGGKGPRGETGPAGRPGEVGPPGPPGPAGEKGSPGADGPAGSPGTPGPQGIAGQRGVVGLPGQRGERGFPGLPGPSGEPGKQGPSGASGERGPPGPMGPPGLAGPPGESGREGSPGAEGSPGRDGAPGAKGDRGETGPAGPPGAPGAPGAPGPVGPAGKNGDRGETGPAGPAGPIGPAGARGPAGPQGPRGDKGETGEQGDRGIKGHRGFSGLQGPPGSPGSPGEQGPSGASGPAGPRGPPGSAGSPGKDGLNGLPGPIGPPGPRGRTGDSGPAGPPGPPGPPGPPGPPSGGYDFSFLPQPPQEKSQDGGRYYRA
T1 sequence (P02466 86-1125 limits assumed): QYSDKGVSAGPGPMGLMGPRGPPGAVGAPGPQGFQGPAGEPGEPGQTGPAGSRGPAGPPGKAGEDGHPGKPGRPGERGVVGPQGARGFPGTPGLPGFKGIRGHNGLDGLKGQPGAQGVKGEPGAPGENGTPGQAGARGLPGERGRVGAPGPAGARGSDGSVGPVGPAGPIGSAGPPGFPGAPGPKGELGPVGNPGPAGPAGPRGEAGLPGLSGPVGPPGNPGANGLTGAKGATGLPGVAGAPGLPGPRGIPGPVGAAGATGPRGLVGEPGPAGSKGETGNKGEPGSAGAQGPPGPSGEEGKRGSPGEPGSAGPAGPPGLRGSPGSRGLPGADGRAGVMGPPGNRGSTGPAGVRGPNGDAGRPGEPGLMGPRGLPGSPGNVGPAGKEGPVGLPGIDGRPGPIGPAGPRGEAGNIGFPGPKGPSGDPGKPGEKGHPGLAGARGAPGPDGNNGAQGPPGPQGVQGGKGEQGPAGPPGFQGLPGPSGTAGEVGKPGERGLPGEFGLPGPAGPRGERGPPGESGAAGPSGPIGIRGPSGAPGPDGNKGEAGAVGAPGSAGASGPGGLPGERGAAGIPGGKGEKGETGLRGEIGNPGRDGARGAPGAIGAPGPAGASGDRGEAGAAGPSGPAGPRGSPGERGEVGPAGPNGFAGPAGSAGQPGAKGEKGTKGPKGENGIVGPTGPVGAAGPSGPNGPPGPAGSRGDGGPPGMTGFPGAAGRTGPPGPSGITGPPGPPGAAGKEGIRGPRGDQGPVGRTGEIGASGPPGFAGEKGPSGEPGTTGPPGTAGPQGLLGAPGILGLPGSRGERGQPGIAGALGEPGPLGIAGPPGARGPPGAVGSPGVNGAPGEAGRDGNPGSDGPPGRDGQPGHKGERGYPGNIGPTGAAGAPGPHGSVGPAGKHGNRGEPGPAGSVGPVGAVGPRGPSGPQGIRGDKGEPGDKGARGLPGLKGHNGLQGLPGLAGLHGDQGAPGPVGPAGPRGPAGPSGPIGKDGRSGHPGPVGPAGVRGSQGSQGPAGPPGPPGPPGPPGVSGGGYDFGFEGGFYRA

B1: hrDecorin: human recombinant decorin sold by Catalent Pharma Solutions under the name Galacorin™ (protein, UniProt P07585 31-359, looked up)
Decorin: DEASGIGPEVPDDRDFEPSLGPVCPFRCQCHLRVVQCSDLGLDKVPKDLPPDTTLLDLQNNKITEIKDGDFKNLKNLHALILVNNKISKVSPGAFTPLVKLERLYLSKNQLKELPEKMPKTLQELRAHENEITKVRKVTFNGLNQMIVIELGTNPLKSSGIENGAFQGMKKLSYIRIADTNITSIPQGLPPSLTELHLDGNKISRVDAASLKGLNNLAKLGLSFNSISAVDNGSLANTPHLRELHLDNNKLTRVPGGLAEHKYIQVVYLHNNNISVVGSSDFCPPGHNTKKASYSGVSLFSNPVQYWEIQPSTFRCVYVRSAIQLGNYK
In the case of B1, in data set [1] (turbidity at 405 nm vs collagen only control), the “effect on collagen fibrillogenesis (fibril formation)” value is on record as “slowing the onset of fibrillogenesis”. In data set [1] (turbidity at 405 nm, 2 hours at 37° C.), the “critical concentration above which fibrillogenesis is inhibited” value was determined as 0.5 μg/ml. In data set [1] (turbidity at 405 nm, no further reduction above), the “concentration at which minimum turbidity is achieved” value was above 10000 ng/mL.

B2: Proteinase K: extracellular matrix remodelling agent proteinase K (protein, UniProt P06873 106-384, looked up)
Proteinase K: AAQTNAPWGLARISSTSPGTSTYYYDESAGQGSCVYVIDTGIEASHPEFEGRAQMVKTYYYSSRDGNGHGTHCAGTVGSRTYGVAKKTQLFGVKVLDDNGSGQYSTIIAGMDFVASDKNNRNCPKGVVASLSLGGGYSSSVNSAAARLQSSGVMVAVAAGNNNADARNYSPASEPSVCTVGASDRYDRRSSFSNYGSVLDIFGPGTSILSTWIGGSTRSISGTSMATPHVAGLAAYLMTLGKTTAASACRYIADTANKGDLSNIPFGTVNLLAYNNYQA
Consider B2, for which the “breakdown of fibrin gel” value with fibrin gel is recorded as “faster”.
